Reference: paper PMC8725159, “CryoEM analysis of small plant biocatalysts at sub-2 Å resolution” (Acta Crystallographica. Section D, Structural Biology, 2022)
“And” between values parts separate entries of the source, which are not always exact repeats. Equal entries are not always repeated.

Tests used:
[1] = molecular target: borneol dehydrogenase 1 from Salvia rosmarinus (SrBDH1) (Salvia rosmarinus); test: SEC-MALS; Superdex 200 Increase 10/300 column, 18°C, miniDAWN TREOS detector with refractive-index detector
[2] = molecular target: borneol dehydrogenase 1 from Salvia rosmarinus (SrBDH1) (Salvia rosmarinus); test: cryo-EM structure; single-particle cryoEM, 1 mg/ml on UltrAuFoil R1.2/1.3 grids, Titan Krios 300 kV, Falcon 3EC, D2 symmetry imposed
[3] = molecular target: the molecule itself; test: SEC-MALS; Superdex 200 Increase 10/300 column, 18°C, miniDAWN TREOS detector with refractive-index detector

stoichiometry N [1] | stoichiometry N [2] | Molecule | stoichiometry N [3]
4 | 4 | borneol dehydrogenase 1 from Salvia rosmarinus (SrBDH1) (enzyme) | 
 |  | borneol dehydrogenase 2 from Salvia officinalis (SoBDH2) (enzyme, borneol-type dehydrogenase SoBDH2 from Salvia officinalis, GenBank MT525099; synthetic gene codon-optimized for E. coli; theoretical molecular mass with the His6 tag 32.2 kDa; Homotetramer with D2 symmetry in cryoEM; also called Salvia officinialis borneol dehydrogenase 2; source: E. coli BL21-RIL, purified (Ni-NTA, SEC); not shown: His6, N-terminal, kept) MATGAANVESPQSLPLRLLGRVALVTGGSSGIGESIVLLFRKHGAKVCIADVQDNQGQRLCETLGGSSDIAFCHCDVTIEDDVKRAVDFTVDKFGTLDIMVNNAGVSGPPCPDIRDFELSAFDRVFDINVRGVFIGMKHAARIMIPAKKGSIISISSVASTMGGLGPHAYTGSKHAVLGLTKNVAAELGKHGIRVNCVSPYAVATSLALAHLPEAERTEDTWDDFRRFVADNANLQGVELTMEDVANAVVFLASDEARYVSGMNLMVDGGFTSTNHALQVFRP | 8 and 4
